Test results: article PMC10115243 (Nature plants, 2023)

What was measured:
[1] = target: Populus trichocarpa galactan synthase 1 (GalS1), residues 73-495, tag removed (Populus trichocarpa); assay: SEC-MALS
[2] = target: Populus trichocarpa galactan synthase 1 (GalS1), residues 73-495, tag removed (Populus trichocarpa); assay: SEC-MALS + other: SAXS
[3] = target: GalS1-ΔSTEM (Populus trichocarpa GalS1 lacking the stem region, residues 73-113) (Populus trichocarpa); assay: SEC-MALS

| stoichiometry N [1] | stoichiometry N [2] | stoichiometry N [3] | Substance |
| --- | --- | --- | --- |
| 2 | 2 |  | Populus trichocarpa galactan synthase 1 (GalS1), residues 73-495, tag removed (enzyme) |
|  |  | 2 | GalS1-ΔSTEM (Populus trichocarpa GalS1 lacking the stem region, residues 73-113) (domain or fragment) |
